Values quoted from earlier work, collected in PMC12186298, “Phase 1 clinical trial of eneboparatide, a novel PTH receptor 1 agonist” (Endocrine Connections, 2025).

System: patients with hypoparathyroidism
Settings: not associated with increased elimination of phosphorus in urine; cited from earlier work
Procedure: Hyperphosphataemia enhances the risk of long-term development of cardiovascular diseases that is particularly important in patients with renal insufficiency, but also exists in patients with normal renal function ([16]). […] This decrease in sPh was apparent after 14 days of treatment in connection with a reduction in the rate of renal reabsorption of phosphorus. The impact of eneboparatide on sPh was primarily observed within the first 12 h after dosing.

B1: PTH(1–84): parathyroid hormone (1–84) therapy, cited comparator (protein, UniProt P01270 32-115, looked up)
Parathyroid hormone: SVSEIQLMHNLGKHLNSMERVEWLRKKLQDVHNFVALGAPLAPRDAGSQRPRKKEDNVLVESHEKSLGEADKADVNVLTKAKSQ
modifications: Parathyroid hormone
notes: parathyroid hormone (1–84) therapy, cited comparator
In the case of B1, the “sPh after the onset of therapy” value is listed as “decreased rapidly and significantly”.
